Assay results from article PMC9967328 (International Journal of Molecular Sciences, 2023).

Key:
[1] = target: the molecule itself; assay: SEC; analytical SEC, 10 µM enzyme loaded on Superdex 200 Increase 10/300, 50 mM HEPES pH 8.0, 150 mM NaCl, 20 µM PLP, samples incubated at 25 °C for 20 min; oligomeric state from the elution volume; the limits of K_Dtet-dim are of the step tetramer to dimers
[2] = target: the molecule itself; assay: as above; remark: listed apart in the source

B1: human ornithine aminotransferase R154L pathogenic variant (enzyme)
chain: TSVATKKTVQGPPTSDDIFEREYKYGAHNYHPLPVALERGKGIYLWDVEGRKYFDFLSSYSAVNQGHCHPKIVNALKSQVDKLTLTSRAFYNNVLGEYEEYITKLFNYHKVLPMNTGVEAGETACKLALKWGYTVKGIQKYKAKIVFAAGNFWGRTLSAISSSTDPTSYDGFGPFMPGFDIIPYNDLPALERALQDPNVAAFMVEPIQGEAGVVVPDPGYLMGVRELCTRHQVLFIADEIQTGLARTGRWLAVDYENVRPDIVLLGKALSGGLYPVSAVLCDDDIMLTIKPGEHGSTYGGNPLGCRVAIAALEVLEEENLAENADKLGIILRNELMKLPSDVVTAVRGKGLLNAIVIKETKDWDAWKVCLRLRDNGLLAKPTHGDIIRFAPPLVIKEDELRESIEIINKTILSF
modifications: PLP on Lys292 (internal aldimine)
stoichiometry N [1]: 2
Kd [2]: > 10 µM
